Measured values as given in patent US20220380426A1.

Target: IL-27 receptor (on BL-2 cells) (human) (UniProt Q6UWB1)
Test: cell-based or functional assay

IL-27 receptor (on BL-2 cells) (human), sequence (Q6UWB1 33-636, chain 1 of 2): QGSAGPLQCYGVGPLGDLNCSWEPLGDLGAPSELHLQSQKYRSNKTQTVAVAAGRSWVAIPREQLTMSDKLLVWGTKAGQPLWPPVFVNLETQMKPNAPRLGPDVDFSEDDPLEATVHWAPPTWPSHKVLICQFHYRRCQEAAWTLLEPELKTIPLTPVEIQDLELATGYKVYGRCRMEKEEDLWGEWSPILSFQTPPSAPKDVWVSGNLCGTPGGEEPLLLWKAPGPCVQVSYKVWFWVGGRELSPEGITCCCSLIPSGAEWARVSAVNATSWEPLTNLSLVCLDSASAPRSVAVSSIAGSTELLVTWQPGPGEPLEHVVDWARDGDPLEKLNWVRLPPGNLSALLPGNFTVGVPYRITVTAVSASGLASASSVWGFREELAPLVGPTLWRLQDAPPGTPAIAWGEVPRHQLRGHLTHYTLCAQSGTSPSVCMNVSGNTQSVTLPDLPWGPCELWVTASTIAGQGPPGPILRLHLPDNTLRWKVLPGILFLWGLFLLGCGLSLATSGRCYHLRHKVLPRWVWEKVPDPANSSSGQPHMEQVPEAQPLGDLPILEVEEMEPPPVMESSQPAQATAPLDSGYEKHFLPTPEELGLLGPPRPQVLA
IL-27 receptor (on BL-2 cells) (human), sequence (P40189 23-918, chain 2 of 2, further chain): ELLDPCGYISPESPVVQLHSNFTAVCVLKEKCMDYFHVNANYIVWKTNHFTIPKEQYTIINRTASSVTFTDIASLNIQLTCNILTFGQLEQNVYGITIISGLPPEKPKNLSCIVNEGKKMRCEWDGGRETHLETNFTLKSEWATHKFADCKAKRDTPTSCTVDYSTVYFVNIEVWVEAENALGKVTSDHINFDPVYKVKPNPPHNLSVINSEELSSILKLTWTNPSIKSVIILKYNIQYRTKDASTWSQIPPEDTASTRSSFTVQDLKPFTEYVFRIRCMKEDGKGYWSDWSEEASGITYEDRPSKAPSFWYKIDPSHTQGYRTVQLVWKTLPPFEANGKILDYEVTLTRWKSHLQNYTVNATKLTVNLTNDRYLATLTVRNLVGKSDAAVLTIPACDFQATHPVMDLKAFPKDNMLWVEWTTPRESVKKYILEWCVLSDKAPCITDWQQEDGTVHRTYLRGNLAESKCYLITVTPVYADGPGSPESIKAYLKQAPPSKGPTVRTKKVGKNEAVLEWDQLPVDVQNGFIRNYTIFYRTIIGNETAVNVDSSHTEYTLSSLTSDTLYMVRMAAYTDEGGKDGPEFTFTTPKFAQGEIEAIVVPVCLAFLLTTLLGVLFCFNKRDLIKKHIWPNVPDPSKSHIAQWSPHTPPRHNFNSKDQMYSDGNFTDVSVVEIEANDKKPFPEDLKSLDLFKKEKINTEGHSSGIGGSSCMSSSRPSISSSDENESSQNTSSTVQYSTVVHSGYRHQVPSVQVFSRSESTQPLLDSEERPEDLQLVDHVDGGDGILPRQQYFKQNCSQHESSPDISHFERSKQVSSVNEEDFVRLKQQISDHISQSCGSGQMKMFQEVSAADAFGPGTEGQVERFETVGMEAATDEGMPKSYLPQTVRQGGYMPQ

STAT1 activation (immunoblotting against phosphorylated STAT1), BL-2 cells, 60 minutes, 1000 ng/mL (fold over IL-27alpha^L162C): 8.5
Substance: IL-27alpha^L162C,T238A,S240A (mutein of the alpha-subunit of human Interleukin 27) (from UniProt Q8NEV9 29-243) (ligand)
